Biological target: Met1-linked tri-ubiquitin chain (UniProt P0CG48 1-76; P0CG48 1-76; P0CG48 1-76)
Experiment: SPR

Chain of Met1-linked tri-ubiquitin chain (P0CG48 1-228, one chain of several): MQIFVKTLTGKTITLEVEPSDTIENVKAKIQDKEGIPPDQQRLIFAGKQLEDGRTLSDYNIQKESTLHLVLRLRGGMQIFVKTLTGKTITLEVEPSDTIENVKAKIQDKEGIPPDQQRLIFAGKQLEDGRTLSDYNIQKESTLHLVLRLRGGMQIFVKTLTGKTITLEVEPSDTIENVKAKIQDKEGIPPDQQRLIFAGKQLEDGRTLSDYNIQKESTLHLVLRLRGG

B1: His-tagged AIRAPL tUIM (residues 188-240), wild type (domain or fragment, mouse, UniProt Q91X58 188-240, looked up)
chain: PVIALQNGLSEDEALQRALELSLAEAKPQVLSSQEEDDLALAQALSASEAEYQ
binding result: binds
